Test results as given in the supplement of paper PMC9170038.

Test system: K4 kissing-loop RNA reporter
Experiment: apparent KD of K4 kissing-loop reporter; higher = weaker reporter binding
Conditions: Eterna round: R107
Experimental: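 RNA-MaP round R107: designed RNA switches with theophylline, tryptophan, arginine or FMN aptamers are transcribed on-chip within common flanks. They are titrated with a labelled K4 kissing-loop RNA reporter in RNA-MaP buffer (100 mM Tris pH 7.5, 80 mM KCl, 4 mM MgCl2), without ligand or with the indicated ligand. Median apparent KD per design.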

[1] = input ligand: theophylline 20 uM
[2] = input ligand: tryptophan 2.4 mM
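Note: bound reporter read as fluorescence of individual clusters on recovered sequencing chips by microscopy, with normalized cluster intensities fitted with a binding model.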

| Sequence | apparent KD of K4 kissing-loop reporter (input ligand: FMN 200 uM) [nM] | apparent KD of K4 kissing-loop reporter (input ligand: arginine 13.2 mM) [nM] | apparent KD of K4 kissing-loop reporter (input ligand: none) [nM] | apparent KD of K4 kissing-loop reporter [1] [nM] | apparent KD of K4 kissing-loop reporter [2] [nM] |
| --- | --- | --- | --- | --- | --- |
| CCAUCGCUAUUCGAUACCAGCCAAGAGGUCUUUGGCCUCUUAUUGGAGUGAUGUUCCAUUGGCCCUUGGCAGCGAAUAGUGAUGG [Theophylline B K4 17] | 356 | 192 | 343 | 541 | 275 |
| CGCCAGUGAUGUUGGCGCAGGUUGCGGGAAGGAGCGCGCGUAAGCGCAGGUAGGUCGCCUGCAGGCCAGUGAUGUUGGCAAUCUG [Same State Arginine A GF 30] | 130 | 110 | 143 | 111 | 116 |
| GCGCAUGUUAAAGGAUAUAGCAGGUGAUACAAGAAAGUGAGUGAUGUUUAUGUAGAUGAUGAUAUGUUAGAAGGUUAACAAAAGC [abcdefghijklmn] | 717 | 624 | 674 | 691 | 434 |
| AUAAACUUGCAGUGAUGUUGCAAGUAAGACUAGGAUAUCAGGAAGCUGAGAAGGAGUCAUCUCCUUCAAACAUCACUAUGAAGGA [whbob_SS_FMNA__2th177] | 413 | 245 | 289 | 328 | 253 |
| UAAUAGUAGACCAGGUCUACUAUUAGGGAUACCAGCCUCGGUCGAGGCCCUUGGCAGCCCAGCGGGUCCAGUGAUGUUGGAUGUC [Beoratri] | 400 | 284 | 371 | 207 | 342 |
| GGUAUCUAUACAGAUACCAGUCGUACAGCUGCAUUACAGGUUAGUGAUGUUAACCUGUACGACCCUUGGCAGCUGUAUAGUAGUA [Theo B Ex t2b] | 101 | 72 | 91.8 | 100 | 94 |
| AGACUACCACACUGUCAAUAGACAGUGAACUAGGAUAUGCUGAUAAGCAGAAGGAGUGAUGUUCCUGGGUAGUCAAUAAAAUAAU [FmnAX 13 G67] | 372 | 338 | 367 | 427 | 364 |
| AAAUGAAGGGCUCGCAGUGAUGUUGCGAGACGAGGACCGGUACGGCCGCCACUCGGCCGCUACUUUGACUCGGGCUUUAAGCUAC [Usarusteer] | 148 | 139 | 145 | 140 | 138 |
| GAGGUUUACGUAGGAUAUCGGUAAUGAGUAGAUGGAGUGAUGUUCCGAAAUUGAAUAGGAGAUGGGCGAGAAGGGCGGAUUAAGC [whbob_SS_FMNB__2th204] | 82.1 | 91.6 | 77.4 | 110 | 58.1 |
| ACACGUGUGGCAGGAUAUCGGGCUGUGGAUCGGCUGGUUACUUAUUCUCGACCAGUGAUGUUGGUACGAGAAGGGCUACCCAGAA [Cetebera] | 145 | 124 | 139 | 135 | 116 |
| UUUCUUUUCUUUUGCGAUCCUAUCCCUUAUAAGGAUAUCUAGAAAUAGAGAAGGUAUGCAGUGAUGUUGCUUGGGAUAGGAUCGC | 311 | 275 | 301 | 277 | 241 |
| AUUCAGAUCUGAAGGAGCGCGUUAAGUCAAUGCUUCAUAGAGCAGUGAUGUUGCUCUGAAACGCAGGUAGGUCGCAGAUCUGACC [Arg B SS t17] | 295 | 250 | 325 | 288 | 287 |
| UUUUUAUUCAGUGAUGUUGAAUUUAUAACAGAGGAUAUGCAUAAAAGCAGAAGGCUGAAAUACUAUACUUUAAUAAAUUAUAUUU [JR_SSFMNA_Sub016] | 214 | 274 | 261 | 326 | 192 |
| AUAAACUUGCAGUGAUGUUGCAAGUAAGACUAGGAUAUCAGGAAACUGAGAAGGAGUCAUCUCCUUCAAACAUCACUAUGAAGGA [[K1]-[K2]-[F1]-[F2]-[F]'-[K]'-[F]''_Design5] | 507 | 263 | 384 | 413 | 331 |
| CCUAUCUCAUACGAUACCAGUGAAUUUAUAUUUAUAAGCAGUGAUGUUGCAUUCCAAGUACACCCUUGGCAGCGUAUGGGAUAGG [Ex Theophylline B K4 21] | 197 | 203 | 213 | 168 | 161 |
| UUAUAUUUUAUAUUUAGUAGAGCUCUCACUCGAGGACCGGUACGGCCGCCACUCGAGUGAUGUUCGAGUGGGAGAGCUCUACAUU [AK3.2 EXC Tryptophan A] | 118 | 104 | 99.8 | 116 | 315 |
| UGUCAUUGGUCUGAUACCAGUUGAUAAACUGGAGUGAUGUUCCAAUCGAGAUAACUCGACAACCCUUGGCAGCAGACCGAUGACU [TheoBS 15 #SwitchBubble 13 #StaticStem] | 182 | 173 | 176 | 128 | 168 |
| UUUGGUAGCGGUGUUGAUUAGGGAGCGGAAGGAGCGCCGAGGAGGGCAGGUAGGUCGCCGGAAUGUAGUGAUGUUGCAUAGAGGU [ExArgA.Ab] | 269 | 227 | 253 | 574 | 214 |
| UGUCAUUGGUCUGAUACCAGCUGAUCGGAAACGAUCAUGCUGGAGUGAUGUUCCAGGAAAAGCCCUUGGCAGCAGACCGAUGACU [TheoBS 11 #SwitchBubble #StaticStem] | 474 | 248 | 121 | 405 | 195 |
| UACAUAUAAUUAUUUCUACAUUUAUUUAGUCAGGAUAUCGAUUAAACGAGAAGGGACAAUAUCAAGUGAUGUUUGAUAAUUCAAA [JR_ExcFMNA_Sub010] | 84.6 | 127 | 75.4 | 112 | 58.6 |
| AAAGCUCUAUAGAGCAAGAGGUCAACUGAUACCAGAGGCUAUAGCCUCCCUUGGCAGCGGAACGAGUGAUGUUCGAGACCUCAAA [AK6.1 SS Theophylline A] | 1410 | 1120 | 1610 | 939 | 1130 |
| CGAGUGAUGUUCGUUCUUUUAUUUUUUUGACAGGAUAUGCGGAAACGCAGAAGGGUCACCUUUGAGUUAAAAGAAUUUAAGUUAU [Ex FMN A 24] | 309 | 284 | 353 | 287 | 235 |
